Assay [1] deals with Erv1 with a C-terminal histidine tag (Erv1-His) (S. cerevisiae) (UniProt P27882). The assay is described as follows: pull-down; mitochondria of His-tagged strains solubilized in 1% digitonin, 500 μg lysate incubated with Ni2+-agarose beads, washed, eluted, immunoblot; untagged WT strain as control.
Assay [2] concerns the target Osm1 with a C-terminal histidine tag (Osm1-His) (S. cerevisiae) (UniProt P21375). Described as above.
Assay [3] deals with T1, Aim32 with a C-terminal FLAG tag (Aim32-FLAG) (S. cerevisiae, UniProt Q04689 1-311).
T1 construct: Aim32, S. cerevisiae, PCR-amplified from genomic DNA of strain GA74-1A; also called pAIM32-FLAG; pAIM32; source: S. cerevisiae Δaim32 strain transformed with [pAIM32-FLAG]; (GPD promoter), mitochondrial lysate; not shown: 3XFLAG, C-terminal, kept
T1 sequence (looked up): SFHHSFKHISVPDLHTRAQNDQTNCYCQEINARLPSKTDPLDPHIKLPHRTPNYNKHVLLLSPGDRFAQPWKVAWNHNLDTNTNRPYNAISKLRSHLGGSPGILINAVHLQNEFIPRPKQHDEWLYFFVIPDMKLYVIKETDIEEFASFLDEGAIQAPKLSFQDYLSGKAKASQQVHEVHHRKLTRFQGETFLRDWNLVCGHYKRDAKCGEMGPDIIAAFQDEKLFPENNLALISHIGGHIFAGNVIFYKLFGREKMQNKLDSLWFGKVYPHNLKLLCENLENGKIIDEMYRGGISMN
The assay is described as follows: co-IP; mitochondrial lysate of Δaim32 [pAIM32-FLAG], ANTI-FLAG M2 affinity gel (FLAG-resin), immunoblot with the indicated antibodies. To be noted: partners not purified.

Chain of Erv1 with a C-terminal histidine tag (Erv1-His) (S. cerevisiae) (P27882 whole entry): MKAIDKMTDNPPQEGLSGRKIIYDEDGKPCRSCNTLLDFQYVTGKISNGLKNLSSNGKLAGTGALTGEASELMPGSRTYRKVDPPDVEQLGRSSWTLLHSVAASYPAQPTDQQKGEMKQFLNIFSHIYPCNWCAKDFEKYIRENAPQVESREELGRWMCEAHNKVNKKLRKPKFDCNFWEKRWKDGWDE
Chain of Osm1 with a C-terminal histidine tag (Osm1-His) (S. cerevisiae) (P21375 33-501): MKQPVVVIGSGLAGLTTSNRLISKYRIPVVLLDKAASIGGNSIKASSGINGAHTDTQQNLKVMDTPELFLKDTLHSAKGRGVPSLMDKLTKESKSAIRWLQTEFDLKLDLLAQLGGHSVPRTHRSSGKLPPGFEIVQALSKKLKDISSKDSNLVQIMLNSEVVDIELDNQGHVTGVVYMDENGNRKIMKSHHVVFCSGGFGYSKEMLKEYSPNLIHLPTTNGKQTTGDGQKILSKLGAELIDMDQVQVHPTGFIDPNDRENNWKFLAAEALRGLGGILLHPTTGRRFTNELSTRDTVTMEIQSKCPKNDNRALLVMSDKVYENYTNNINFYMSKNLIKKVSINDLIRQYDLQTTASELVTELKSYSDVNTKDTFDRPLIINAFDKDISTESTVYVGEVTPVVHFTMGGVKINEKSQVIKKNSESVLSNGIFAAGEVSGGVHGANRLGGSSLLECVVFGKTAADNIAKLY

Turning to “Altered inheritance of mitochondria 32 (Aim32) (from UniProt Q04689 1-311) (natural protein)”, the figures for the fraction copurified in assay [1] and in assay [2] were 10% and 5%, respectively.

B1: Sod2 (enzyme, UniProt P00447 27-233, looked up)
chain: KVTLPDLKWDFGALEPYISGQINELHYTKHHQTYVNGFNTAVDQFQELSDLLAKEPSPANARKMIAIQQNIKFHGGGFTNHCLFWENLAPESQGGGEPPTGALAKAIDEQFGSLDELIKLTNTKLAGVQGSGWAFIVKNLSNGGKLDVVQTYNQDTVTGPLVPLVAIDAWEHAYYLQYQNKKADYFKAIWNVVNWKEASRRFDAGKI
notes: Sod2, matrix antioxidant (superoxide dismutase), S. cerevisiae; source: endogenous, S. cerevisiae mitochondrial lysate
B1 returned a fraction copurified in assay [3] of roughly 10%.

B2: Tim22 (natural protein, UniProt Q12328 1-207, looked up)
chain: MVYTGFGLEQISPAQKKPYNELTPEEQGERGAEMIMNFMTSCPGKSVVSGVTGFALGGVLGLFMASMAYDTPLHTPTPANTAATATAGNIGVGGISRTVQQISDLPFRQQMKLQFTDMGKKSYSSAKNFGYIGMIYAGVECVIESLRAKNDIYNGVTAGFFTGAGLAYKAGPQAALMGGAGFAAFSAAIDLYMKSEDGRPPQNDFKE
notes: Tim22, component of the TIM22 translocon, S. cerevisiae; source: endogenous, S. cerevisiae mitochondrial lysate
For the molecule B2, in assay [3], the fraction copurified was roughly 10%.

B3: Tim23 (natural protein, UniProt P32897 1-222, looked up)
chain: MSWLFGDKTPTDDANAAVGGQDTTKPKELSLKQSLGFEPNINNIISGPGGMHVDTARLHPLAGLDKGVEYLDLEEEQLSSLEGSQGLIPSRGWTDDLCYGTGAVYLLGLGIGGFSGMMQGLQNIPPNSPGKLQLNTVLNHITKRGPFLGNNAGILALSYNIINSTIDALRGKHDTAGSIGAGALTGALFKSSKGLKPMGYSSAMVAAACAVWCSVKKRLLEK
notes: Tim23, component of the TIM23 translocon, S. cerevisiae; source: endogenous, S. cerevisiae mitochondrial lysate
With B3, the fraction copurified in assay [3] was roughly 10%.

B4: Tim50 (natural protein, UniProt Q02776 44-476, looked up)
chain: QKETKDDKPKSILTDDMLFKAGVDVDEKGQGKNEETSGEGGEDKNEPSSKSEKSRRKRQTSTDIKREKYANWFYIFSLSALTGTAIYMARDWEPQESEELKKDIDNGYTLSLMYKRFKARFNSMFTYFQEPPFPDLLPPPPPPPYQRPLTLVITLEDFLVHSEWSQKHGWRTAKRPGADYFLGYLSQYYEIVLFSSNYMMYSDKIAEKLDPIHAFVSYNLFKEHCVYKDGVHIKDLSKLNRDLSKVIIIDTDPNSYKLQPENAIPMEPWNGEADDKLVRLIPFLEYLATQQTKDVRPILNSFEDKKNLAEEFDHRVKKLKDKFYGDHKSGGNWAMTALGLGNSLGGSTKFPLDLIHEEGQKNYLMFMKMIEEEKEKIRIQQEQMGGQTFTLKDYVEGNLPSPEEQMKIQLEKQKEVDALFEEEKKKKKIAESK
notes: Tim50, component of the TIM23 translocon, S. cerevisiae; source: endogenous, S. cerevisiae mitochondrial lysate
B4 gave a fraction copurified in assay [3] of roughly 10%.

B5: Tim17 (natural protein, UniProt P39515 1-158, looked up)
chain: MSADHSRDPCPIVILNDFGGAFAMGAIGGVVWHGIKGFRNSPLGERGSGAMSAIKARAPVLGGNFGVWGGLFSTFDCAVKAVRKREDPWNAIIAGFFTGGALAVRGGWRHTRNSSITCACLLGVIEGVGLMFQRYAAWQAKPMAPPLPEAPSSQPLQA
notes: Tim17, component of the TIM23 translocon, S. cerevisiae; source: endogenous, S. cerevisiae mitochondrial lysate
On to B5, for which the fraction copurified in assay [3] is roughly 10%.

For the origin of these results see paper PMC8482512, “Aim32 is a dual-localized 2Fe-2S mitochondrial protein that functions in redox quality control” (The Journal of Biological Chemistry, 2021).
